Consider 6 molecules from patent US20130142802A1 (published 2013).

T1: FGF8b (UniProt P55075-3 23-215)
T1 construct: Coated on ELISA plates; also called ligand protein FGF8b
T1 sequence (looked up): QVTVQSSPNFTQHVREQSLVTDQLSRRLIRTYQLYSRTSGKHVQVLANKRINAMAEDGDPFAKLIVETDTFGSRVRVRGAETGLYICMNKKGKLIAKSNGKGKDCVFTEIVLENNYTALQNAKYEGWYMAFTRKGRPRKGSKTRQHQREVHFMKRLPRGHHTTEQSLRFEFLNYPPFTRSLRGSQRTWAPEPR

T2: FGFR2 IIIb-Fc (human)
T2 construct: also called FGFR2IIIb beta-ECD; FGFR2IIIb-hFc
T2 chain: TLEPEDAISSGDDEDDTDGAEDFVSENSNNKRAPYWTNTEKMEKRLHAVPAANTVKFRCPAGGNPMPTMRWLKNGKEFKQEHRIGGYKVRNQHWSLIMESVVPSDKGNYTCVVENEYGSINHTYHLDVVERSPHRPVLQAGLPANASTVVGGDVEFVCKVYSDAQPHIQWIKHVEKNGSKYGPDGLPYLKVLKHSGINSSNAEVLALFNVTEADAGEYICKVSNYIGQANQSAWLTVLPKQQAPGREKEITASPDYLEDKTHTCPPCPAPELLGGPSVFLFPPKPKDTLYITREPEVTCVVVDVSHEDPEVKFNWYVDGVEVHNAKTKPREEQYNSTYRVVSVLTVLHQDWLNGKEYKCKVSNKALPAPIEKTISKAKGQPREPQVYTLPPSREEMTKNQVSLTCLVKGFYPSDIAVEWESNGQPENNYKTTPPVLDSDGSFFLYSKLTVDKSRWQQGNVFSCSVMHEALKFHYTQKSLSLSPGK

T3: 128AA-mFc (128-amino acid loop-3 fragment of FGFR2IIIc fused to mouse Fc) (human)
T3 chain: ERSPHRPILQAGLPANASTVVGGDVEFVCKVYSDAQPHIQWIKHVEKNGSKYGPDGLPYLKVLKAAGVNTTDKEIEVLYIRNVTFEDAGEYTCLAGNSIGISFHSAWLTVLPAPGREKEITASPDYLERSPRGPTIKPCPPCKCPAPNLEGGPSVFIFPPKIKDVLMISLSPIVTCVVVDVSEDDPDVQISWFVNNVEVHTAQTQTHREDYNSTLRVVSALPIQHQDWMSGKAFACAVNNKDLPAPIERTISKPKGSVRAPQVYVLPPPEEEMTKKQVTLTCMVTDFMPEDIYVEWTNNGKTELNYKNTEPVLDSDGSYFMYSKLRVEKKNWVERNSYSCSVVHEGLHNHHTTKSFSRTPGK

B1: Flag-FGFR2-IIIb expressed on CHO cells (receptor, human)
chain: RPSFSLVEDTTLEPEEPPTKYQISQPEVYVAAPGESLEVRCLLKDAAVISWTKDGVHLGPNNRTVLIGEYLQIKGATPRDSGLYACTASRTVDSETWYFMVNVTDAISSGDDEDDTDGAEDFVSENSNNKRAPYWTNTEKMEKRLHAVPAANTVKFRCPAGGNPMPTMRWLKNGKEFKQEHRIGGYKVRNQHWSLIMESVVPSDKGNYTCVVENEYGSINHTYHLDVVERSPHRPILQAGLPANASTVVGGDVEFVCKVYSDAQPHIQWIKHVEKNGSKYGPDGLPYLKVLKHSGINSSNAEVLALFNVTEADAGEYICKVSNYIGQANQSAWLTVLPKQQAPGREKEITASPDYLEIAIYCIGVFLIACMVVTVILCRMKNTTKKPDFSSQPAVHKLTKRIPLRRQVTVSAESSSSMNSNTPLVRITTRLSSTADTPMLAGVSEYELPEDPKWEFPRDKLTLGKPLGEGCFGQVVMAEAVGIDKDKPKEAVTVAVKMLKDDATEKDLSDLVSEMEMMKMIGKHKNIINLLGACTQDGPLYVIVEYASKGNLREYLRARRPPGMEYSYDINRVPEEQMTFKDLVSCTYQLARGMEYLASQKCIHRDLAARNVLVTENNVMKIADFGLARDINNIDYYKKTTNGRLPVKWMAPEALFDRVYTHQSDVWSFGVLMWEIFTLGGSPYPGIPVEELFKLLKEGHRMDKPANCTNELYMMMRDCWHAVPSQRPTFKQLVEDLDRILTLTTNEEYLDLSQPLEQYSPSYPDTRSSCSSGDDSVFSPDPMPYEPCLPQYPHINGSVKT
notes: whole, on cells; also called CHO-FGFR2-IIIb; FGFR2-IIIb-expressing CHO cells; not shown: Flag-tag at the N-terminus
B2: soluble FGFR2 IIIc-Fc fusion protein (Fc fusion)
chain: RPSFSLVEDTTLEPEGAPYWTNTEKMEKRLHAVPAANTVKFRCPAGGNPMPTMRWLKNGKEFKQEHRIGGYKVRNQHWSLIMESVVPSDKGNYTCVVENEYGSINHTYHLDVVERSPHRPILQAGLPANASTVVGGDVEFVCKVYSDAQPHIQWIKHVEKNGSKYGPDGLPYLKVLKAAGVNTTDKEIEVLYIRNVTFEDAGEYTCLAGNSIGISFHSAWLTVLPAPGREKEITASPDYLERSDKTHTCPPCPAPELLGGPSVFLFPPKPKDTLYITREPEVTCVVVDVSHEDPEVKFNWYVDGVEVHNAKTKPREEQYNSTYRVVSVLTVLHQDWLNGKEYKCKVSNKALPAPIEKTISKAKGQPREPQVYTLPPSREEMTKNQVSLTCLVKGFYPSDIAVEWESNGQPENNYKTTPPVLDSDGSFFLYSKLTVDKSRWQQGNVFSCSVMHEALKFHYTQKSLSLSPGK
notes: Extracellular domain of human FGFR2 beta (IIIc), aa 1-262, Arg-Ser linker, human IgG1 Fc; signal peptide 1-21 left out; also called FGFR2 beta-ECD; FGFR2c beta-EDC
B3: human scFv clone 6, soluble (scFv)
scFv: QSVLTQPPSVSAAPGQKVTISCSGSSSNIGNNYVSWYQQLPGTAPKLLIYDNNKRPSGIPDRFSDSKSGTSATLGITGLQTGDEADYYCGTWDSSLSAVVFGGGTKLTVLGSGGSTITSYNVYYTKLSSSGTEVQLVQSGAEVKKPGSSVKVSCKASGGTFSSYAISWVRQAPGQGLEWMGRIIPILGIANYAQKFQGRVTITADKSTSTAYMELSSLRSEDTAVYYCARDPLLWSYFDYWGQGTLVTVSS
notes: Tags are not described; also called scFv-6; Atto-HuMab-06
B4: human scFv clone 6, phage-displayed (scFv)
scFv: B3 scFv
notes: also called scFv-6; Atto-HuMab-06
B5: dcFv-8 (Fc-fusion of human scFv Clone 8) (Fc fusion)
chain: QSVLTQPPSVSAAPGQKVTISCSGSSSNIGNNYVSWYQQLPGTAPKLLIYDNNKRPSGIPDRFSGSKSGTSATLAISGLQSEDEADYYCAAWDDSLNGVVFGGGTKLTVLGSGGSTITSYNVYYTKLSSSGTQVQLVQSGAEVKKPGSSVKVSCKASGGTFSSYAISWVRQAPGQGLEWMGRIIPIFGTANYAQKFQGRVTITADESTSTAYMELNSLRSEDTAVYYCARDRWDWNDAFDIWGQGTMVTVSS
notes: Bivalent fusion construct to human IgG Fc; also called clone dcFv-8; not shown: human IgG1 Fc of vector pFUSE-hIgG1e2-Fc2(IL2ss) (Invivogen)
B6: human scFv clone 8, soluble (scFv)
scFv: B5 chain
notes: Tags are not described; also called scFv-8; Atto-HuMab-08

Test [1] has as its target T4, dcFv-01 (Fc-fusion of human scFv Clone 1) (human).
T4 construct: scFv-1 fragment fused to the N-terminus of human IgG1 Fc; bivalent; also called dcFv-1; clone dcFv-1; not shown: human IgG1 Fc of vector pFUSE-hIgG1e2-Fc2(IL2ss) (Invivogen)
The test can be described thus: immunocytochemical staining of CHO cells transiently expressing FGFR2IIIb.

In test [2] the target is T4, dcFv-01 (Fc-fusion of human scFv Clone …). The test can be described thus: competition ELISA: antibody pre-incubated with FGFR2IIIc-Fc, then added to ligand-coated plate (legend paragraph 175: FGF8; paragraph 640: FGF2); bound receptor detected. Background: In an ELISA, binding on a coated surface is turned into a signal by an enzyme label.
A further test addresses T1, FGF8b. The test can be described thus: ELISA: receptor Fc fusion (4 ug/ml) on coated FGF8b, anti-human IgG Fc-HRP.
Test [3] addresses B2. The test can be described thus: ELISA: soluble scFv on coated protein (2 ug/ml).
In test [4] the target is T2, FGFR2 IIIb-Fc. Kind of test: ELISA: soluble scFv on coated protein (2 ug/ml).
The target of test [5] is human ovalbumin (OA) (human). The test can be described thus: ELISA: soluble scFv on coated protein (2 ug/ml).
Test [6] has as its target human ovalbumin (OA) (human). Kind of test: phage ELISA on coated protein.
Test [7] has as its target T5, human ferritin (Fer) (human, UniProt P02794 2-183; P02792 2-175, Natural ferritin is a 24-subunit shell of H and L chains in a tissue-dependent ratio, with an iron core. The letters carry one copy of each subunit.).
T5 construct: also called Feritin
Kind of test: phage ELISA on coated protein.

Test [8] deals with T3, 128AA-mFc (128-amino acid loop-3 …). The test can be described thus: phage ELISA on coated protein.
The target of test [9] is T5, human ferritin (Fer). The test can be described thus: phage ELISA on coated protein. The source holds these as a separate data set.
In test [10] the target is B1. The test can be described thus: immunocytochemical staining of CHO cells transiently expressing FGFR2IIIb.
Test [11] has as its target B2. The test can be described thus: competition ELISA: antibody pre-incubated with FGFR2IIIc-Fc, then added to ligand-coated plate (legend paragraph 175: FGF8; paragraph 640: FGF2); bound receptor detected.
The target of test [12] is T2, FGFR2 IIIb-Fc. The test can be described thus: ELISA with soluble scFv, plate coated with FGFR2 IIIb Fc fusion (whole extracellular domain).

Consider B1, for which the binding result in test [1] is “no binding”.
Take B2: the binding result (in test [2]; with FGF8b) was “binds” throughout.
With B3, the “OD (450 nm)” value in test [3] amounted to 0.571; in the test with FGFR2 IIIb-Fc [4], 0.012; in the test with human ovalbumin (OA) [5] it was 0.015.
Take B4: the “OD (450 nm)” value in the test with human ovalbumin (OA) [6] is 0.018; with human ferritin (Fer) [7], 0.006; in [8] it was 0.106. Moreover, in the test with human ferritin (Fer) [9], the binding result is “no binding”.
As for B5, the binding result in test [10] is listed as “no binding”. The “IC50 (read off the curve)” value in test [11] is around 0.3 nM.
Regarding B6, the binding result (in test [10]; in the test with FGFR2 IIIb-Fc [12]) was “no binding” throughout. Also, the “OD (450 nm)” value worked out at 0.8 in test [3], 0.003 with FGFR2 IIIb-Fc [4] and 0.028 with human ovalbumin (OA) [5].
